Source: the DeepSol protein solubility set

Assay: soluble on expression in E. coli; label from the status in PepcDB or PDB records

Sequence	soluble on expression in E. coli
MGSDKIHHHHHHMAHVGLAMHFRRDPNDRRKELTVSRFIEVVHKNAVASRNTADAFIKEMLHYNIAEYVAGGDGRTHPLQPTAATIERFTGWVTAHLRTLDHIDGGDRLGRYLDRPDMLATLQPLIADGLLASKPVREPHQTFSLFIWLNNGGIVMDWLMSGIDPDHAGLERIPTSVVSIGDFAKWLKLSRTHLGRKLRTAEELGSIGWLGQRGHSVMWVSHGFYEEYMTVQAAKLAVVDNAFKACFPPSQGDD	not soluble
GSHMGGRLEGLTQDLRQLQESEQQLDHLMNICTTQLRLLSEDTDSQRLAYVTCQDLRSIADPAEQMVMVIKAPPETQLQAVDSSENFQISLKSKQGPIDVFLCPEE	soluble
MSEDQMKQQLVIDQKAVKETLQQMLTSDQGKKFWESALKDPKFAESFAKGLQAEHEKMMKALMKDPDYQALMIDILKDPEMEKAMVDVLKSKEFRQHLQKVITETLNSPLYQAKIQDMLMKAAEKVQQGGEKQEEEGGGEGGEGEGEESTGNQQGGGG	not soluble
MGSDKIHHHHHHMLVVIPQVLNAEQVGAVRERLEHAGEAWVDGRVTAGYSGAPVKFNQQIDERSDVALECQRLILGMLERNPRFISAALPNIVYPPMFNRYSEGMTFGAHVDGSVRIHPHDGRKLRTDISATLFLSPHDSYDGGELQVQDTYGMHSVKLDAGDMVVYPATSLHQVTPITRGTRVASFFWIQSLIRDDTQRSLLFDMDNAIQRLNQTGADEEARRTLVGCYHNLLRQWSET	not soluble
MAHHHHHHMDWVKVMNLIYASRDVDATTLAFNAAMSAVEKKGCLKSMLEVFEIMKKKNIKPDLVSYKLLLRLCANYHLGEHAEILFDEMVETDKLTPTYEIYALMISCFAKVGDGHRAVEFVEKLRSDPLVGEVNNWGEAGGVSGSGSADDRQHPAWRDSFAEEATTEEGAEAEGSTYTNQFKEITKKIKHIERGSSKIQYSEYANVIFACNMSNLPEQGIKYFEELLNTGKYMPSTLLLESIFDLLAKNGNYEKCLDYYNKLKDDPNFKKAINVNILNNILKALSVQGKINIIEDLWKNEFDELMLTPNEISYGYMLKVYSIVDDYEKAFKLFKEMQMKKMLSNKNIIPFVYTINAFKNCGIYNYAIYVLRVAKLLGVSSEDLLKLYNDAMVACVNAKKYDVVISLYAELITMQEKGAPSLEISISTLGFVLLAFRELDMREDFTNLKNLIIQKNYKLTPLCGQLVSEQPH	not soluble
ALKPTIYKFRIALSDMNNDYYDSKNLTIALHPSEKPQRMLARILAFCLNAQKDLEFTKGLSTTEEPDLWHVADDQSITHWIEIGEPEPDRIKKASRLAKQVKVYTYNTKAPVWWEKMSGKFSMLPVSVESFDYDAIDMICQHLDRGTNLSVMITGTSIFVDVNDQHVEVTVKELQS	soluble
MGSSHHHHHHSSGRENLYFQGHMSKPIVMERGVKYRDADKMALIPVKNVATEREALLRKPEWMKIKLPADSTRIQGIKAAMRKNGLHSVCEEASCPNLAECFNHGTATFMILGAICTRRCPFCDVAHGRPVAPDANEPVKLAQTIADMALRYVVITSVDRDDLRDGGAQHFADCITAIREKSPQIKIETLVPDFRGRMDRALDILTATPPDVFNHNLENVPRIYRQVRPGADYNWSLKLLERFKEAHPEIPTKSGLMVGLGETNEEIIEVMRDLRRHGVTMLTLGQYLQPSRHHLPVQRYVSPDEFDEMKAEALAMGFTHAACGPFVRSSYHADLQAKGMEVK	soluble
MGLTFENNTIENFDVQATFGMMNFLEVVAINERDGENNVTEEVREQRVTVYSSKLNDQVEIVIDPDYDVSGINYDDEIELTGNVTARGWLYTFKGYNDNVQTEQAFKVRAAGIKKVGAVKQTQAPQPKEKQENKQ	not soluble
MSLQIEFREFNPFDCWIWVEFSTVPAPLEQQYLEELFDSWFFLGKLGGFNAENLQAQEEGLELSYMSYQSAQERSSLAALMHNMGEVEYQGRWARCWFDLGTSDAIALDVLLNALQRLSEEMVGLEQVFVGGENADWPSPGRRSLDFAADEGHHHHHH	soluble
GMFASLVIPVSAQANSGEMPQEQQLAVKYMDALTEHDYKTLITFYNRDSIFFDKTANRKYTGGRFIIDFLERAHQGVLEYDFNIEHMYNAGSLVVMIGNYHFKGPGEQFGKPGKIIDVAIPAVTSLKLDMLNRRVTEHVDLIDYQTMSDQLAMQ	soluble
MAHHHHHHMKRTLSLGIEGSANKIGVGVVDQSGTVLSNVRETYITPPGSGFLPRETAIHHSQHVLQVVQRAMHDAAVTPADIDIISYTKGPGMGGPLSVGCTVAKTLSLLWGKPLVGVNHCVGHIEMGRVVTKSENPVVLYVSGGNTQVIAYADHRYRIFGETIDIAVGNCLDRVARLLNISNDPAPGYNIEQKAKKGKCYIRLPYTVKGMDMSFTGILSYIEQLVHHPQFSDSDVREMSKKRHKAAPSLTSMPVPPGETLNTDDICFSLQETIFAMLVEVTERAMSQIKTSDVLIVGGVGCNRRLQEMMQLMAAERGGRCFGMDQRYCIDNGCMIAYAGLLQYLSGSFTTMAEATVTQRFRTDEVYVTWRD	not soluble
MAHHHHHHMATVGDPLFRIHEPTYAFLDCSACIAFAGHLGRRMNESIRYGGRGGATFLSSHRLGKDNKLKRRDYATSELRGAEVLEKICNDSLFDDYALHFRADMRIRVYDNGESEYPLAQHYSKEDSRILKAVKTKAVHVFCTRVMDEEEDAMTSLVREVELLSELEQRLCGGYLEMRNITAPPFPVEKAVTAVCVGVEPSIEAEVRRLEKYEKWQASISKGTSQDKMKGAEGAESVVVKGVQYSKDDPLSFTVLRKPNAKSNGDTTEGGSDAAEDVRKQPDKDSVFMNFDL	not soluble
MGSDKIHHHHHHMTLPIDTPAVLVDLNVAEANVRAFQSYCDRHSLKMRPHIKTHKLPQLAEYQIAQGAIGITCQKITEAEAMVAGGDMRDILITYNILGAEKVARLRALSERVALSVVADNLTVVEGLSAGFAGANKPLPVLVECNTGADRCGVETPEAALALAQAIDAAPGLKFAGLMTYPPVGGAAKVTTWLAEAKARIEATDLTVEVISSGGSPDMWQAHEMPLATEYRVGTYVYNDRSLVTRGICTWDDCALTVLATVVSTPSATRAVIDAGSKVLTSDLLGLEGYGHVLGYPDFMIDQLSEEHGRITSAQPTGLRVGDQVRIVPNHACVVANMLDHITLMRAEEVAGQETVAARGQVW	not soluble
MEEVSSEMEVEVQNRQLSDSSPAQNVKKFGLKNSIQTNFGSDYVFQIVPKIDWTAIAVSLSTNTVKLYSPVTGQYYGECKGHSDTVNQIAFSSDSAASPHVLHSCSSDGTIRSWDTRSFQQVSRIDTGNDQEIFSFSYGGAADNLLAGGCKEQVLLWDWRNSKQVACLEESHMDDVTQVHFVPNKPNKLLSASVDGLICLFNTEGDINDDDHLESVINVGTSIGKIGFLGDGYKKLWCLTHIETLSIWNWEDGSCEVNLEKARELASDSWTQDNVDYFVDCHCPGGEDLWVIGGTCAGTVGYFPVNYKQPGSIGTAEAILGGGHIDVVRSVLQMPGEYGGAAGLFGWTGGEDGRLCCWKSDEDATEINRSWTSSELVVKPPRNRKKNRHSPY	not soluble
MAIQFIVSNKYTAEVSKQLNDSQNWVLDSGIYYEDHNNHIVSSPINSATKPQNTREEWLWIPPHCQVVVCSTSSLKSFLGCKASEDLDRVFGDHPLWLDQLRPLSNLLENSLIDLLSRAPFEQSSKRNIQSMERGNPVMNWNVMQVEEEDTRGEQRVAASSSLSSSFDWNTFLRDRCGLSEEDVAYCFRKLSRFGRVSLSRLNEDSLLRMGINDPTVIAKLLIGITEEFS	not soluble
MSRKMTGIVKTFDCKSGKGLITPSDGRKDVQVHISACRQHETEALIPGIRVEFCRINGLRGPTAANVYLS	not soluble
MSLGDITISFESSDIDRHLILGVDWLIEGNLYEDAVESSIALSRRFLLNGKVKSLEMFLDEKPIDDLLKNYQLSKIHEMDVDSTEDTSVLEIQQYRYLINIFKQYMEWEKTVKLLNSESNIPSIIEKFQEFFQSTFKLIKTFLVDLTENIDHKDHDILFEIRALYTPYLIMELHKGLVEAASLLRIPRFIKDALNITNLVANEDDKIYLLFQSSGKLKEYLQLVAQTATLTEGHHHHHH	soluble
